Measurements taken from US20260098059A1 (ENDOMET BIOSCIENCES, published 2026).
Where “and” joins values, the source holds several entries; their conditions need not be identical. Equal values may be shown once. Bridges are numbered along the chain shown (N, C = ends). [ ]: non-standard residue; d: D form. The star is where a group is joined. N3 = N-terminal azide group, clicked with Pra; NMeW = CN[C@@H](Cc1c[nH]c2ccccc12)C(=O)O; Stearoyl = CCCCCCCCCCCCCCCCCC(=O)*; αMeV = CC(C)[C@](C)(N)C(=O)O; αMeS = C[C@](N)(CO)C(=O)O; Pra = C#CC[C@H](N)C(=O)O; GABA = NCCCC(=O)O; βAla = NCCC(=O)O; Sar = CNCC(=O)O

B1: SEQ ID NO: 201 (peptide)
peptide: KWFLIAFWE
HELM: PEPTIDE1{K.W.F.L.I.A.F.W.E}$PEPTIDE1,PEPTIDE1,1:R3-9:R3$$$V2.0
SMILES: CC[C@H](C)[C@@H]1NC(=O)[C@H](CC(C)C)NC(=O)[C@H](Cc2ccccc2)NC(=O)[C@H](Cc2c[nH]c3ccccc23)NC(=O)[C@@H](N)CCCCNC(=O)CC[C@@H](C(=O)O)NC(=O)[C@H](Cc2c[nH]c3ccccc23)NC(=O)[C@H](Cc2ccccc2)NC(=O)[C@H](C)NC1=O
B2: SEQ ID NO: 202 (peptide)
peptide: KWFLISAWD
HELM: PEPTIDE1{K.W.F.L.I.S.A.W.D}$PEPTIDE1,PEPTIDE1,1:R3-9:R3$$$V2.0
SMILES: CC[C@H](C)[C@@H]1NC(=O)[C@H](CC(C)C)NC(=O)[C@H](Cc2ccccc2)NC(=O)[C@H](Cc2c[nH]c3ccccc23)NC(=O)[C@@H](N)CCCCNC(=O)C[C@@H](C(=O)O)NC(=O)[C@H](Cc2c[nH]c3ccccc23)NC(=O)[C@H](C)NC(=O)[C@H](CO)NC1=O
B3: SEQ ID NO: 203 (peptide)
peptide: KWALISAWD
HELM: PEPTIDE1{K.W.[Cha].L.I.S.A.W.D}$PEPTIDE1,PEPTIDE1,1:R3-9:R3$$$V2.0
SMILES: CC[C@H](C)[C@@H]1NC(=O)[C@H](CC(C)C)NC(=O)[C@H](CC2CCCCC2)NC(=O)[C@H](Cc2c[nH]c3ccccc23)NC(=O)[C@@H](N)CCCCNC(=O)C[C@@H](C(=O)O)NC(=O)[C@H](Cc2c[nH]c3ccccc23)NC(=O)[C@H](C)NC(=O)[C@H](CO)NC1=O
B4: SEQ ID NO: 206 (peptide)
peptide: KWLLISAWD
HELM: PEPTIDE1{K.W.L.L.I.S.A.W.D}$PEPTIDE1,PEPTIDE1,1:R3-9:R3$$$V2.0
SMILES: CC[C@H](C)[C@@H]1NC(=O)[C@H](CC(C)C)NC(=O)[C@H](CC(C)C)NC(=O)[C@H](Cc2c[nH]c3ccccc23)NC(=O)[C@@H](N)CCCCNC(=O)C[C@@H](C(=O)O)NC(=O)[C@H](Cc2c[nH]c3ccccc23)NC(=O)[C@H](C)NC(=O)[C@H](CO)NC1=O
B5: SEQ ID NO: 210 (peptide)
peptide: H-MAFLISFWG-OH
B6: SEQ ID NO: 211 (peptide)
peptide: H-MWFLICAWG-OH
B7: SEQ ID NO: 213 (peptide)
peptide: H-MWFLICFW[Sar]-OH
B8: SEQ ID NO: 222 (peptide)
peptide: Ac-MWILISFWG-OMe
B9: SEQ ID NO: 139 (peptide)
peptide: H-[2Aoc]WFLICFWG-OH
B10: SEQ ID NO: 166 (peptide)
peptide: H-MIRMWFLICAWG-OH
B11: SEQ ID NO: 173 (peptide)
peptide: KWFLICEWG
HELM: PEPTIDE1{K.W.F.L.I.C.E.W.G}$PEPTIDE1,PEPTIDE1,1:R3-7:R3$$$V2.0
SMILES: CC[C@H](C)[C@@H]1NC(=O)[C@H](CC(C)C)NC(=O)[C@H](Cc2ccccc2)NC(=O)[C@H](Cc2c[nH]c3ccccc23)NC(=O)[C@@H](N)CCCCNC(=O)CC[C@@H](C(=O)N[C@@H](Cc2c[nH]c3ccccc23)C(=O)NCC(=O)O)NC(=O)[C@H](CS)NC1=O
B12: SEQ ID NO: 174 (peptide)
peptide: KWFLICFWEG
modifications: cyclo-H2N-K(G*)WFLICFWE*G-COOH
B13: SEQ ID NO: 178 (peptide)
peptide: DWFLICAWKG
HELM: PEPTIDE1{D.W.F.L.I.C.A.W.K.G}$PEPTIDE1,PEPTIDE1,1:R3-9:R3$$$V2.0
SMILES: CC[C@H](C)[C@@H]1NC(=O)[C@H](CC(C)C)NC(=O)[C@H](Cc2ccccc2)NC(=O)[C@H](Cc2c[nH]c3ccccc23)NC(=O)[C@@H](N)CC(=O)NCCCC[C@@H](C(=O)NCC(=O)O)NC(=O)[C@H](Cc2c[nH]c3ccccc23)NC(=O)[C@H](C)NC(=O)[C@H](CS)NC1=O
B14: SEQ ID NO: 177 (peptide)
peptide: DMWFLICFWKG
HELM: PEPTIDE1{D.M.W.F.L.I.C.F.W.K.G}$PEPTIDE1,PEPTIDE1,1:R3-10:R3$$$V2.0
SMILES: CC[C@H](C)[C@@H]1NC(=O)[C@H](CC(C)C)NC(=O)[C@H](Cc2ccccc2)NC(=O)[C@H](Cc2c[nH]c3ccccc23)NC(=O)[C@H](CCSC)NC(=O)[C@@H](N)CC(=O)NCCCC[C@@H](C(=O)NCC(=O)O)NC(=O)[C@H](Cc2c[nH]c3ccccc23)NC(=O)[C@H](Cc2ccccc2)NC(=O)[C@H](CS)NC1=O
B15: SEQ ID NO: 180 (peptide)
peptide: KMWFLICEWG
HELM: PEPTIDE1{K.M.W.F.L.I.C.E.W.G}$PEPTIDE1,PEPTIDE1,1:R3-8:R3$$$V2.0
SMILES: CC[C@H](C)[C@@H]1NC(=O)[C@H](CC(C)C)NC(=O)[C@H](Cc2ccccc2)NC(=O)[C@H](Cc2c[nH]c3ccccc23)NC(=O)[C@H](CCSC)NC(=O)[C@@H](N)CCCCNC(=O)CC[C@@H](C(=O)N[C@@H](Cc2c[nH]c3ccccc23)C(=O)NCC(=O)O)NC(=O)[C@H](CS)NC1=O
B16: SEQ ID NO: 181 (peptide)
peptide: KWFLICEWG
HELM: PEPTIDE1{K.W.F.L.I.C.E.W.G}$PEPTIDE1,PEPTIDE1,1:R3-7:R3$$$V2.0
SMILES: CC[C@H](C)[C@@H]1NC(=O)[C@H](CC(C)C)NC(=O)[C@H](Cc2ccccc2)NC(=O)[C@H](Cc2c[nH]c3ccccc23)NC(=O)[C@@H](N)CCCCNC(=O)CC[C@@H](C(=O)N[C@@H](Cc2c[nH]c3ccccc23)C(=O)NCC(=O)O)NC(=O)[C@H](CS)NC1=O
B17: SEQ ID NO: 31 (peptide)
peptide: KMSRMWYLISFW
HELM: PEPTIDE1{K.M.S.R.M.W.Y.L.I.S.F.W}$PEPTIDE1,PEPTIDE1,1:R3-12:R2$$$V2.0
SMILES: CC[C@H](C)[C@@H]1NC(=O)[C@H](CC(C)C)NC(=O)[C@H](Cc2ccc(O)cc2)NC(=O)[C@H](Cc2c[nH]c3ccccc23)NC(=O)[C@H](CCSC)NC(=O)[C@H](CCCNC(=N)N)NC(=O)[C@H](CO)NC(=O)[C@H](CCSC)NC(=O)[C@@H](N)CCCCNC(=O)[C@H](Cc2c[nH]c3ccccc23)NC(=O)[C@H](Cc2ccccc2)NC(=O)[C@H](CO)NC1=O
B18: SEQ ID NO: 33 (peptide)
peptide: N3-WESILDEHVQRVW[Pra]-NH2
modifications: triazole N-14
B19: SEQ ID NO: 205 (peptide)
peptide: KWXLISAWD
HELM: PEPTIDE1{K.W.[CC(C)(C)[C@H](N[*:1])C(=O)[*:2]].L.I.S.A.W.D}$PEPTIDE1,PEPTIDE1,1:R3-9:R3$$$V2.0
SMILES: CC[C@H](C)[C@@H]1NC(=O)[C@H](CC(C)C)NC(=O)[C@H](C(C)(C)C)NC(=O)[C@H](Cc2c[nH]c3ccccc23)NC(=O)[C@@H](N)CCCCNC(=O)C[C@@H](C(=O)O)NC(=O)[C@H](Cc2c[nH]c3ccccc23)NC(=O)[C@H](C)NC(=O)[C@H](CO)NC1=O
B20: SEQ ID NO: 208 (peptide)
peptide: KWFEISFWG
HELM: PEPTIDE1{K.W.F.E.I.S.F.W.G}$PEPTIDE1,PEPTIDE1,1:R3-4:R3$$$V2.0
SMILES: CC[C@H](C)[C@H](NC(=O)[C@@H]1CCC(=O)NCCCC[C@H](N)C(=O)N[C@@H](Cc2c[nH]c3ccccc23)C(=O)N[C@@H](Cc2ccccc2)C(=O)N1)C(=O)N[C@@H](CO)C(=O)N[C@@H](Cc1ccccc1)C(=O)N[C@@H](Cc1c[nH]c2ccccc12)C(=O)NCC(=O)O
B21: SEQ ID NO: 390 (peptide)
peptide: Stearoyl-W[NMeW]E[αMeS]ILDEH[αMeV]QRVWG-OH
B22: SEQ ID NO: 391 (peptide)
peptide: Stearoyl-[βAla]W[NMeW]E[αMeS]ILDEH[αMeV]QRVWG-OH
SMILES: CCCCCCCCCCCCCCCCCC(=O)NCCC(=O)N[C@@H](Cc1c[nH]c2ccccc12)C(=O)N(C)[C@@H](Cc1c[nH]c2ccccc12)C(=O)N[C@@H](CCC(=O)O)C(=O)N[C@@](C)(CO)C(=O)N[C@H](C(=O)N[C@@H](CC(C)C)C(=O)N[C@@H](CC(=O)O)C(=O)N[C@@H](CCC(=O)O)C(=O)N[C@@H](Cc1c[nH]cn1)C(=O)N[C@](C)(C(=O)N[C@@H](CCC(N)=O)C(=O)N[C@@H](CCCNC(=N)N)C(=O)N[C@H](C(=O)N[C@@H](Cc1c[nH]c2ccccc12)C(=O)NCC(=O)O)C(C)C)C(C)C)[C@@H](C)CC
B23: SEQ ID NO: 392 (peptide)
peptide: {Stearoyl-GABA}-W[NMeW]E[αMeS]ILDEH[αMeV]QRVWG-OH

These binders were tested against T1, β-catenin (UniProt P35222 134-665, limits assumed, biotinylated in the SPR and plate assays) (assay: cell-based or functional assay).
T1 sequence (looked up): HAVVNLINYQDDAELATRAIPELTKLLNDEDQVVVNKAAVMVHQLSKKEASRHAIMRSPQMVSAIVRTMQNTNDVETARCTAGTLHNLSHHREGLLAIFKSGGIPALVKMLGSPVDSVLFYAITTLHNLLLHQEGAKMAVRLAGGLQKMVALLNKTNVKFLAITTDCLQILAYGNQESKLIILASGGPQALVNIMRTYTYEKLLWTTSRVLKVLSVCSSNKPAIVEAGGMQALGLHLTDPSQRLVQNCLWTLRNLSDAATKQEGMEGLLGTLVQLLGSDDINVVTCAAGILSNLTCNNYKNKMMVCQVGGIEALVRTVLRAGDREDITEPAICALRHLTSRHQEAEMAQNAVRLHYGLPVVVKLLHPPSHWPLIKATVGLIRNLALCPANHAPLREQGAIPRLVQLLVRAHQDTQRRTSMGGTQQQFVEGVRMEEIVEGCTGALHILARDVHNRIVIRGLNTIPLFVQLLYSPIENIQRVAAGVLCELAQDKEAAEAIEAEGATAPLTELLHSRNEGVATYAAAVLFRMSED
In the case of B1, the “Wnt Reporter EC50” value is reported as > 22.5 µM and ≤ 30 µM.
With B2 the “Wnt Reporter EC50” value was > 22.5 µM and ≤ 30 µM.
In the case of B3, the “Wnt Reporter EC50” value is reported as > 7.5 µM and ≤ 15 µM.
For B4, the “Wnt Reporter EC50” value was > 15 µM and ≤ 22.5 µM.
B5 was tested, and the “Wnt Reporter EC50” value was ≤ 7.5 µM.
With B6 the “Wnt Reporter EC50” value was ≤ 7.5 µM.
With B7 the “Wnt Reporter EC50” value was ≤ 7.5 µM.
For B8, the “Wnt Reporter EC50” value was > 7.5 µM and ≤ 15 µM.
B9 was tested, and the “Wnt Reporter EC50” value was > 30 µM.
B10 was tested, and the “Wnt Reporter EC50” value was > 30 µM.
In the case of B11, the “Wnt Reporter EC50” value is reported as > 30 µM.
In the case of B12, the “Wnt Reporter EC50” value is reported as > 7.5 µM and ≤ 15 µM.
In the case of B13, the “Wnt Reporter EC50” value is reported as ≤ 7.5 µM.
In the case of B14, the “Wnt Reporter EC50” value is reported as > 7.5 µM and ≤ 15 µM.
For B15, the “Wnt Reporter EC50” value was ≤ 7.5 µM.
B16 was tested, and the “Wnt Reporter EC50” value was > 30 µM.
For B17, the “Wnt Reporter EC50” value was > 30 µM.
For B18, the “Wnt Reporter EC50” value was > 30 µM.
With B19 the “Wnt Reporter EC50” value was > 30 µM.
B20 was tested, and the “Wnt Reporter EC50” value was > 7.5 µM and ≤ 15 µM.
With B21 the “Proliferation IC50, Wnt dependent cells” value was 4.7 µM and the “Wnt Reporter EC50” value was > 7.5 µM and ≤ 15 µM.
With B22 the “Proliferation IC50, Wnt dependent cells” value was 4.8 µM and the “Wnt Reporter EC50” value was ≤ 7.5 µM.
B23 was tested, and the “Wnt Reporter EC50” value was ≤ 7.5 µM.
